Test results as given in patent US20220184184A1, “GLUCOSE SENSITIVE INSULIN DERIVATIVES” (Novo Nordisk A/S, priority 2019, published 2022).

How the values were obtained:
[1] = Alizarin red (ARS) colorimetric displacement assay, binding of boron compounds to glucose; settings: statement in words
Protocol: The alizarin-red binding assay is a colorimetric assay used to determine the inhibition affinity of boronate/boroxole compounds to glucose. The assay is based on a colour shift of alizarin-red upon binding to boronate, which shift can be followed by change in absorbance in the 330-340 nm region. […] After 5 minutes of centrifugation at 4000 rpm, the plate is placed in a multi-well spectrometer (SpectraMax, Molecular Devices) for absorption detection. […] Upon complete dissolution of the compound, 200 μM of Alizarin red (ARS) is added to the solution. The ARS-boronate solution is then aliquoted into a 96 multiwell plate (black, flat and clear bottom) 1:1 with appropriate carbohydrate. […] The plate with ARS-boronate mixed with carbohydrate is incubated 20 minutes at room temperature. After 5 minutes of centrifugation at 4000 rpm the plate is placed in a multiwell spectrometer (SpectraMax, Molecular Devices) for absorption detection.

[2] = target: T1, human Insulin Receptor A (hIR-A) (human, UniProt P06213-2 28-1370); assay: SPA competition vs 125I-insulin, hIR-A, 1.5% HSA, no glucose
T1 construct: Solubilised semi-purified receptor captured on SPA beads by antibody 83-7
Protocol: (§1) BHK cells over-expressing human Insulin Receptor A (hIR-A) were lysed in 50 mM Hepes pH 8.0, 150 mM NaCl, 1% Triton X-100, 2 mM EDTA and 10% glycerol. The cleared cell lysate was batch absorbed with wheat germ agglutinin (WGA)-agarose (Lectin from Triticum vulgaris-Agarose, L1394, Sigma-Aldrich Steinheim, Germany) for 90 minutes. The receptors were washed with 20 volumes 50 mM Hepes pH 8.0, 150 mM NaCl and 0.1% Triton X-100, where after the receptors were eluted with 50 mM Hepes pH 8.0, 150 mM NaCl, 0.1% Triton X-100, 0.5 M n-Acetyl Glucosamine and 10% glycerol. All buffers contained Complete (Roche Diagnostic GmbH, Mannheim, Germany) as described in Andersen et al. 2017 PLos One 12.
(§2) In order to test the glucose sensitivity, the binding experiments were set up in absence or presence of 20 mM glucose. The plates were rocked gently for 22.5 hours at 22° C., centrifuged for 5 minutes at 1000 rpm and counted in TopCounter (Perkin Elmer). Data points were fitted to a four-parameter logistic model, whereby the relative affinity of the analogue compared to human insulin (within the same plate) was determined.

[3] = target: T1, human Insulin Receptor A (hIR-A); assay: SPA, relative hIR-A affinity at 20 mM vs 0 mM glucose, 1.5% HSA
Protocol: as §1, §2

[4] = target: T2, human Insulin Receptor A (hIR-A) (human, UniProt P06213-2 28-1370); assay: SPA, relative hIR-A affinity at 20 mM over 0 mM glucose
T2 construct: Solubilised, semi-purified receptor
Protocol: as §1, §2

[5] = target: T2, human Insulin Receptor A (hIR-A); assay: SPA, competition with 125I-insulin on solubilised hIR-A, relative to human insulin
Protocol: as §1, §2

[6] = target: T3, human Insulin Receptor A (hIR-A) (human, UniProt P06213-2 28-1370); assay: SPA, displacement of 125I-insulin from solubilised hIR-A, 1.5% HSA, no glucose; affinity relative to human insulin
T3 construct: Solubilized semi-purified receptor captured on SPA beads through antibody 83-7
Protocol: as §1, §2

[7] = target: T3, human Insulin Receptor A (hIR-A); assay: SPA, displacement of 125I-insulin from solubilised hIR-A, 1.5% HSA; increase in relative affinity from 0 to 20 mM glucose
Protocol: as §1, §2

With O=C(O)c1cc2c(c(C(F)(F)F)c1)COB2O [Example 42, 1-Hydroxy-4-(trifluoromethyl)-1,3-dihydrobenzo[c][1,2]oxaborole-6-carboxylic acid] the “affinity to glucose compared with the diboron compounds” value [1] was “weaker affinity to glucose”.

For O=C(O)c1cc(F)c2c(c1)B(O)OC2 [Example 43, 4-fluoro-1-hydroxy-1,3-dihydrobenzo[c][1,2]oxaborole-6-carboxylic acid], the “affinity to glucose compared with the diboron compounds” value [1] was “weaker affinity to glucose”.

B1: Compound of Example 150 (ligand)
chain 1: GIVEQCCTSICSLEQLENYCNK
chain 2: FVNQHLCGSHLVEALYLVCGERGFHYPK
modifications: not fully specified; diboron group from building block of example 18; sites only in drawing
In the case of B1, the “HIR affinity relative HI (%), 1.5% HSA” value [2] is reported as 13.3% and the “HIR glucose factor, 20 mM glucose 1.5% HSA” value [3] is reported as 1.3 fold.

B2: Compound of Example 152 (ligand)
chain 1: GIVEQCCTSICSLEQLENYCNK
chain 2: FVNQHLCGSHLVEALYLVCGERGFHYPGK
modifications: not fully specified; diboron group from building block of example 15; sites only in drawing
For B2, the “HIR affinity relative HI (%), 1.5% HSA” value [2] was 4.9% and the “HIR glucose factor, 20 mM glucose 1.5% HSA” value [3] was 2.9 fold.

B3: Compound of Example 154 (ligand)
chain 1: GIVEQCCTSICSLEQLENYCNK
chain 2: FVNQHLCGSHLVEALYLVCGERGFHYPGK
modifications: not fully specified; diboron group from building block of example 19; sites only in drawing
For B3, the “HIR affinity relative HI (%), 1.5% HSA” value [2] was 6.1% and the “HIR glucose factor, 20 mM glucose 1.5% HSA” value [3] was 3.7 fold.

B4: Compound of Example 158 (ligand)
chain 1: GIVEQCCTSICSLEQLENYCNK
chain 2: FVNQHLCGSHLVEALYLVCGERGFHYPGK
modifications: not fully specified; diboron group from building block of example 16; sites only in drawing
In the case of B4, the “HIR affinity relative HI (%), 1.5% HSA” value [2] is reported as 2% and the “HIR glucose factor, 20 mM glucose 1.5% HSA” value [3] is reported as 9.9 fold.

B5: Compound of Example 155 (ligand)
chain 1: GIVEQCCTSICSLEQLENYCNK
chain 2: FVNQHLCGSHLVEALYLVCGERGFHYPK
modifications: not fully specified; diboron group from building block of example 19; sites only in drawing
With B5 the “HIR affinity relative HI (%), 1.5% HSA” value [2] was 5.3% and the “HIR glucose factor, 20 mM glucose 1.5% HSA” value [3] was 3 fold.

B6: Compound of Example 166 (ligand)
chain 1: GIVEQCCTSICSLEQLENYCNK
chain 2: FVNQHLCGSHLVEALYLVCGERGFHYPK
modifications: not fully specified; diboron group from building block of example 20; sites only in drawing
With B6 the “HIR affinity relative HI (%), 1.5% HSA” value [2] was 2.2% and the “HIR glucose factor, 20 mM glucose 1.5% HSA” value [3] was 5.9 fold.

B7: compound of Example 271: A14E A22K B25H desB27 desB30 human insulin conjugated with building block of example 22 (ligand)
chain 1: GIVEQCCTSICSLEQLENYCNK
chain 2: FVNQHLCGSHLVEALYLVCGERGFHYPK
modifications: not fully specified; diboron group(s) of example 22, sites only in drawing
notes: number and sites of diboron groups only in drawing
For B7, the “HIR glucose factor, 20 mM glucose 1.5% HSA” value [4] was 7.1 fold.

B8: compound of Example 272: A14E A22K B25H desB27 desB30 human insulin conjugated with building block of example 29 (ligand)
chain 1: GIVEQCCTSICSLEQLENYCNK
chain 2: FVNQHLCGSHLVEALYLVCGERGFHYPK
modifications: not fully specified; diboron group(s) of example 29, sites only in drawing
notes: as for B7
For B8, the “HIR affinity relative HI (%), 1.5% HSA” value [5] was 0.2% and the “HIR glucose factor, 20 mM glucose 1.5% HSA” value [4] was 12.1 fold.

B9: Compound of Example 348 (ligand)
chain 1: GIVEQCCTSICSLEQLENYCNK
chain 2: FVNQHLCGSHLVEALYLVCGERGFHYPK
modifications: diboron group of building block of Example 39 on amino group(s); site(s) shown only in the drawing
For B9, the “HIR affinity relative HI (%), 1.5% HSA” value [6] was 0.2% and the “HIR glucose factor, 20 mM glucose 1.5% HSA” value [7] was 7.3 fold.

B10: Compound of Example 349 (ligand)
chain 1: GIVEQCCTSICSLEQLENYCNK
chain 2: FVNQHLCGSHLVEALYLVCGERGFHYPK
modifications: diboron group of building block of Example 38 on amino group(s); site(s) shown only in the drawing
With B10 the “HIR affinity relative HI (%), 1.5% HSA” value [6] was 1% and the “HIR glucose factor, 20 mM glucose 1.5% HSA” value [7] was 4.7 fold.

B11: Compound of Example 350 (ligand)
chain 1: GIVEQCCTSICSLEQLENYCNK
chain 2: FVNQHLCGSHLVEALYLVCGERGFHYPK
modifications: diboron group of building block of Example 37 on amino group(s); site(s) shown only in the drawing
With B11 the “HIR affinity relative HI (%), 1.5% HSA” value [6] was 0.1% and the “HIR glucose factor, 20 mM glucose 1.5% HSA” value [7] was 18.4 fold.

B12: Compound of Example 352 (ligand)
chain 1: GIVEQCCTSICSLEQLENYCNK
chain 2: FVNQHLCGSHLVEALYLVCGERGFHYPK
modifications: diboron group of building block of Example 40 on amino group(s); site(s) shown only in the drawing
For B12, the “HIR glucose factor, 20 mM glucose 1.5% HSA” value [7] was 5.2 fold.

B13: Compound of Example 139 (ligand)
chain 1: GIVEQCCTSICSLEQLENYCNK
chain 2: FVNQHLCGSHLVEALYLVCGERGFHYPK
modifications: diboron group from building block of example 9; sites only in drawing
With B13 the “HIR affinity relative HI (%), 1.5% HSA” value [2] was 4% and the “HIR glucose factor, 20 mM glucose 1.5% HSA” value [3] was 3.2 fold.

B14: Compound of Example 141 (ligand)
chain 1: GIVEQCCTSICSLEQLENYCNK
chain 2: FVNQHLCGSHLVEALYLVCGERGFHYPK
modifications: diboron group from building block of example 2; sites only in drawing
In the case of B14, the “HIR affinity relative HI (%), 1.5% HSA” value [2] is reported as 8.6% and the “HIR glucose factor, 20 mM glucose 1.5% HSA” value [3] is reported as 2.3 fold.

B15: Compound of Example 146 (ligand)
chain 1: GIVEQCCTSICSLEQLENYCNK
chain 2: FVNQHLCGSHLVEALYLVCGERGFHYPK
modifications: not fully specified; diboron group from building block of example 16; sites only in drawing
For B15, the “HIR affinity relative HI (%), 1.5% HSA” value [2] was 3.5% and the “HIR glucose factor, 20 mM glucose 1.5% HSA” value [3] was 4.5 fold.

B16: Compound of Example 149 (ligand)
chain 1: GIVEQCCTSICSLEQLENYCNK
chain 2: FVNQHLCGSHLVEALYLVCGERGFHYPK
modifications: not fully specified; diboron group from building block of example 15; sites only in drawing
In the case of B16, the “HIR affinity relative HI (%), 1.5% HSA” value [2] is reported as 6.7% and the “HIR glucose factor, 20 mM glucose 1.5% HSA” value [3] is reported as 2.8 fold.
